Experimental findings from publication PMC12828747, “Nanobodies against Clostridioides difficile CDTb provide a toolkit for potent toxin neutralization and highly sensitive quantitation” (The Journal of Biological Chemistry, 2025) are described below.

The Kd is the constant that tells how readily two partners part at equilibrium. A high value points to weaker binding. For orientation: koff means the rate constant with which the complex falls apart. High values mean a short-lived complex, low ones a long-lived complex. As a reminder, the kon is the rate constant with which the complex forms. Lower therefore signals slow association.

Like-named read-outs stand apart in the source and are kept apart here.

Test [1] has as its target T1, CDTb_(D2–D3′) (210–749) (Clostridioides difficile, strain not …, UniProt O32739). Briefly: SPR; […] (10 mM HEPES pH 7.4, 150 mM NaCl, 0.05% Tween-20) with 0.5 mg/ml BSA; […]. The settings on record: both partners purified.
Test [2] deals with T2, native CDTb protein in cecal contents of mice infected with C. difficile R20291 (Clostridioides difficile R20291, UniProt A0A9R0BM17, strain).
T2 construct: CDTb made by C. difficile R20291 during infection of mice; source: endogenous, C. difficile R20291, in cecal material of infected mice
Briefly: ELISA; sandwich ELISA on cecal material of mice infected with R20291 (diluted to 10 mg/ml in PBS-T + 2% BSA): native CDTb bound by the coated capture Nb. The note with it: one partner purified. A general note: ELISA stands for enzyme-linked immunosorbent assay.

Test [3] addresses T3, CDTb_(D1–D4) monomer (residues 43–876) (Clostridioides difficile, strain not …).
T3 construct: also called full-length (pro) CDTb; pro-CDTb
T3 chain: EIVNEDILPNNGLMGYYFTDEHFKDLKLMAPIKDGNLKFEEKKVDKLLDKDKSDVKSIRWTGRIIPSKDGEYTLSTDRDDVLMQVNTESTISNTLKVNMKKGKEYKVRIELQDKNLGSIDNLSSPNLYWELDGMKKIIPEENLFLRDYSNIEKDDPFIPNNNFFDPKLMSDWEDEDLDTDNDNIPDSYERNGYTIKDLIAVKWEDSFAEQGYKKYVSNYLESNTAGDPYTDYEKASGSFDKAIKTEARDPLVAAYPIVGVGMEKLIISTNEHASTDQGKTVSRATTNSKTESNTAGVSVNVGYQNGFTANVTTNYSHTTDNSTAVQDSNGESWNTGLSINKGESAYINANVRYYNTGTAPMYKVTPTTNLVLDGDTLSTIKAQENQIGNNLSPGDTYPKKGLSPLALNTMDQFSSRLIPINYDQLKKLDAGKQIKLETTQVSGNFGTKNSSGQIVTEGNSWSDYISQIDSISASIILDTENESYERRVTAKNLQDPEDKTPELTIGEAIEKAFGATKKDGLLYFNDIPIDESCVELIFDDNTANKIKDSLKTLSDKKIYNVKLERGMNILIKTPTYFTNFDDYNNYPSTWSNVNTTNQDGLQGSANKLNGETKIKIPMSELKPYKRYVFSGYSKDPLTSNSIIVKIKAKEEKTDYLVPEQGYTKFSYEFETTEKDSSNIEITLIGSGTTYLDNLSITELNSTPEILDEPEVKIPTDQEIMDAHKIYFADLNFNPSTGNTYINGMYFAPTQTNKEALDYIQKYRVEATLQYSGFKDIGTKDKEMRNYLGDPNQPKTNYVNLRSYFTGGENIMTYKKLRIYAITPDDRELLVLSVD
Briefly: SPR; Carterra LSA^XT, SAHC30M chip, 25 °C; biotinylated Nbs captured at eight densities; CDTb constructs injected at 0.3–300 nM (fourfold dilutions) without regeneration; HBS-T (10 mM HEPES pH 7.4, 150 mM NaCl, 0.05% Tween-20) with 0.5 mg/ml BSA; one-to-one kinetics model. The note with it: both partners purified.

Test [4] has as its target T4, activated monomeric CDTb (75 kDa-activated monomer) (Clostridioides difficile).
T4 construct: source: recombinant pro-CDTb trypsinized in vitro, purified (SEC)
T4 chain: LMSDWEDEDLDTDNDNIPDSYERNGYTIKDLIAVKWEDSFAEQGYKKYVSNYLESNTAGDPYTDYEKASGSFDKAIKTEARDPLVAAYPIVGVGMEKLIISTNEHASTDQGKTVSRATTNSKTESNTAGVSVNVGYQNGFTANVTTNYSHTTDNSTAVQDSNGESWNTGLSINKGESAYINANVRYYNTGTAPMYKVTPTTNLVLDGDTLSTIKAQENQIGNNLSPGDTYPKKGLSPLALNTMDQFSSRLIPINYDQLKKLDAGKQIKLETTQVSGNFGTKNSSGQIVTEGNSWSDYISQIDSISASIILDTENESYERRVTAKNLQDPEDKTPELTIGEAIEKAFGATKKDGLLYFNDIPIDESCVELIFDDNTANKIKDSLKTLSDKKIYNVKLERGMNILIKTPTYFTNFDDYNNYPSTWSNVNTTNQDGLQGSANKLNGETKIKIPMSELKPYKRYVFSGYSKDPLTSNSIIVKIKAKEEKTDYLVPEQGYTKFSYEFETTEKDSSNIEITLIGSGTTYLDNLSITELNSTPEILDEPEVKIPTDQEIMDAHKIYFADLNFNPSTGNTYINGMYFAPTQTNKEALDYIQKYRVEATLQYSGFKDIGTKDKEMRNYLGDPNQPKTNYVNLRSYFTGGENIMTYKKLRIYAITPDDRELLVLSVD
Briefly: ELISA; sandwich ELISA: nonbiotinylated capture Nb coated (200 ng/well), purified CDTb (activated monomer or heptameric sample) in PBS-T + 2% BSA, biotinylated detection Nb (50 ng/well), streptavidin-HRP; room temperature. The note with it: both partners purified.

The target in test [5] is T5, heptameric CDTb (Clostridioides difficile, strain not …).
T5 construct: the ELISA text says only heptameric CDTb; also called CDTb heptamer; CDTb oligomers
T5 chain: T4 chain
Described as above. The settings on record: both partners purified.

The target in test [6] is T6, CDTbD4 (760–876) (Clostridioides difficile, strain not …, UniProt O32739).
T6 construct: also called domain 4
Nature of the test: SPR; Carterra LSA^XT, SAHC30M chip, 25 °C; biotinylated Nbs captured at eight densities; CDTb constructs injected at 0.3–300 nM (fourfold dilutions) without regeneration; HBS-T (10 mM HEPES pH 7.4, 150 mM NaCl, 0.05% Tween-20) with 0.5 mg/ml BSA; one-to-one kinetics model. The note with it: both partners purified.

The target of test [7] is T7, CDTbD3′ (Clostridioides difficile, strain not …).
T7 chain: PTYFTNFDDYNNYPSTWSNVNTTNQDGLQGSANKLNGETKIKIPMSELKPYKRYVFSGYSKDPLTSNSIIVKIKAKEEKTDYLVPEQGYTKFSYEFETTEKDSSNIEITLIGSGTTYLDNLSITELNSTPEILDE
The description is as above. The settings on record: both partners purified.

The target in test [8] is T3, CDTb_(D1–D4) monomer (residues 43–876).
Test [9] addresses T7, CDTbD3′.
For test [10], the target named is T1, CDTb_(D2–D3′) (210–749). Nature of the test: SPR; […] (10 mM HEPES pH 7.4, 150 mM NaCl, 0.05% Tween-20) with 0.5 mg/ml BSA; […]. The settings on record: both partners purified. This is another data set of the same source. For orientation: SPR reads the build-up and loss of mass on a sensor chip optically.
For test [11], the target named is T4, activated monomeric CDTb (75 …). Briefly: cell-based or functional assay.
For test [12], the target named is T2, native CDTb protein in cecal contents …. Nature of the test: ELISA; sandwich ELISA on cecal material of mice infected with R20291: biotinylated detection Nb on the captured native CDTb. The note with it: one partner purified.
Test [13] concerns the target T6, CDTbD4 (760–876). Briefly: SPR; Carterra LSA^XT, SAHC30M chip, 25 °C; biotinylated Nbs captured at eight densities; CDTb constructs injected at 0.3–300 nM (fourfold dilutions) without regeneration; HBS-T (10 mM HEPES pH 7.4, 150 mM NaCl, 0.05% Tween-20) with 0.5 mg/ml BSA; one-to-one kinetics model. The note with it: both partners purified. This is another data set of the same source.

Test [14] has as its target T7, CDTbD3′. The test is described as above. The settings on record: both partners purified.
The target of test [15] is T3, CDTb_(D1–D4) monomer (residues 43–876). The description is as above. The settings on record: both partners purified.

B1: Nb A9 (VHH)
VHH: QVQLQESGGGLVQPGGSLRLSCTSSTNMLEFTAVAWWRQAPGKQRDLLAVITRAGVPNYADSKGRFAISRDNAKNTVDLLINTLEPDDTAVYTCNARTSGNINYWGQGTQVTVSS
notes: also called C1A9; source: Expi293F, transfected, purified from supernatant (TALON resin)
Regarding B1, the equilibrium dissociation constant (Kd) in [1] was 20 pM; in test [3] it was 24 pM; in test [7], ≤ 31 pM. Further, the off-rate constant (koff) in test [1] is 1.4e-05 s⁻¹; in [3], 3.2e-05 s⁻¹; in test [7], ≤ 1e-05 s⁻¹. The association rate constant (kon) in test [1] was 710000 M⁻¹ s⁻¹; in [3] it was 1e+06 M⁻¹ s⁻¹; in test [7] it was 330000 M⁻¹ s⁻¹. In addition, the binding result was “binds” in test [2], “binds” in test [4], “binds” in test [5] and “no binding” in [6].

B2: Nb G2 (VHH)
VHH: QVQLQESGGGLVQPGGSLTLSCKASGIVFSTHTLAWYRQAPGKHRNVLAVITSAGIPNYDTDLKGRFTISRDNAKNTVYLQMNSLEPEDTAVYYCNARGPHPTVTGTTANYWGQGTQVTVSS
notes: also called C1G2; source: Expi293F, transfected, purified from supernatant (TALON resin)
With B2, the Kd in test [1] is ≤ 22 pM; in test [3], ≤ 29 pM; in test [7] it was 180 pM. In addition, the dissociation rate constant (koff) was ≤ 1e-05 s⁻¹ in test [1], ≤ 1e-05 s⁻¹ in [3] and 4.1e-05 s⁻¹ in test [7]. Further, the on-rate (kon) in test [1] worked out at 480000 M⁻¹ s⁻¹; in test [3] it was 380000 M⁻¹ s⁻¹; in [7], 240000 M⁻¹ s⁻¹. Moreover, the binding result in [2] is reported as “binds”; in test [4], “binds”; in [6], “no binding”.

B3: C1G1 (VHH)
VHH: QVQLQESGGGLVQPGGSLTLSCAASGSIGSGSVMSWYRQAPGKERELVAQESGGRLRSYAKSVMGRFTISRDNSNNTVTLQMNNLKTDDTAIYYCHLVQFSGRYWGHGTQVTGS
Take B3: the binding result in test [8] and in test [9] was “binds” each time.

B4: Nb H12 (VHH)
VHH: QVQLQESGGGLVQPGGSLRLSCAASGDIFSFYTMGWYRQAPGKQRELVATITSPGTTNYADSVKGRFTISRDNAKNMVYLQMTSLKPEDTAVYYCNADRILTTDPQFKYWGQGTQVTVSS
notes: also called C1H12; source: Expi293F, transfected, purified from supernatant (TALON resin)
On to B4, for which the binding result in test [10] is given as “no binding”; in [12], “binds”; in test [14] it was “no binding”. For the same molecule, in test [11], the “EC50 of neutralization of CDT-induced rounding of Vero-GFP cells (1 nM CDTa + 7 nM activated monomeric CDTb, Nb 0.6–100 nM, 3 h postintoxication)” value was ~6000 pM. The Kd in [3] is 50 pM; in [13] it was 42 pM. Further, the values for the off-rate (koff) in [3] and in [13] were 6.7e-05 s⁻¹ and 0.00013 s⁻¹, respectively. Moreover, the kon in test [3] stood at 1.4e+06 M⁻¹ s⁻¹; in test [13], 3.1e+06 M⁻¹ s⁻¹.

B5: Nb H8 (VHH)
VHH: QVQLQESGGGLVQPGRSLRLSCEASDFSLNTFGAGWFRQVPGKEREGVSCISPSNSSTYYADSVKGRFTISRDNAKNTIYLQMNSLKPEDTGVYFCAARPITSAQALCTLLVSDSFTSWGQGTQVTVSS
notes: also called C1H8; source: Expi293F, transfected, purified from supernatant (TALON resin)
With B5, the binding result in test [10] is given as “no binding”; in [4], “binds”; in test [14] it was “no binding”. Also, the Kd in test [3] came out at 1600 pM; in test [13], 630 pM; in test [15], 1900 pM. Besides, the off-rate constant (koff) stood at 0.00089 s⁻¹ in test [3] and 0.00083 s⁻¹ in [13]. Besides, the association rate constant (kon) is 560000 M⁻¹ s⁻¹ in test [3] and 1.4e+06 M⁻¹ s⁻¹ in test [13].

B6: Nb C6 (VHH)
VHH: QVQLQESGGGLVEPGGSLRLSCVASGIVVASSTMSWYRQAPGKQRELVAQIFSGGNTNYRDSVRGRFTISKDNAKNTAYLQMDNLEPDDTAVYYCYARGFWGQGTQVTVSS
notes: also called C1C6; source: Expi293F, transfected, purified from supernatant (TALON resin)
Regarding B6, the results for the dissociation constant Kd in [1] and in [3] were 35 pM and 18 pM, respectively. Moreover, the koff in test [1] came to 4.4e-05 s⁻¹; in [3], 1.4e-05 s⁻¹. Moreover, the on-rate constant (kon) in test [1] stood at 1.3e+06 M⁻¹ s⁻¹; in [3], 790000 M⁻¹ s⁻¹. The binding result was “binds” in test [4], “binds” in test [12], “no binding” in test [6] and “no binding” in test [14].
